# Results from patent US20030100089A1.
# T1: MMP-7
# T1 sequence (P09237 95-267, species assumed, looked up): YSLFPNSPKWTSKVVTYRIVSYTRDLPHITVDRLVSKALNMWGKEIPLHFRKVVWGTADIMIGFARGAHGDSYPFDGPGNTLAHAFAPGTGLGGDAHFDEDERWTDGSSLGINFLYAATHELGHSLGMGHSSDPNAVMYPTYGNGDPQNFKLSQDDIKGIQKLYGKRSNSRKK
# T2: Cathepsin G
# T2 sequence (P08311 21-244, species assumed, looked up): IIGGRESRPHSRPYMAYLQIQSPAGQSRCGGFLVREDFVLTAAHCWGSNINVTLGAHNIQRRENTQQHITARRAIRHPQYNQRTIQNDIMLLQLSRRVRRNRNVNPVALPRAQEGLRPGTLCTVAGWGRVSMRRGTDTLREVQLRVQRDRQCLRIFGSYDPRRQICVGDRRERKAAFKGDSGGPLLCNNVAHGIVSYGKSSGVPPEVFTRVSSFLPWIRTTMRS
# B1: human leukocyte elastase (HLE) (protein)
# chain: IVGGRRARPHAWPFMVSLQLRGGHFCGATLIAPNFVMSAAHCVANVNVRAVRVVLGAHNLSRREPTRQVFAVQRIFENGYDPVNLLNDIVILQLNGSATINANVQVAQLPAQGRRLGNGVQCLAMGWGLLGRNRGIASVLQELNVTVVTSLCRRSNVCTLVRGRQAGVCFGDSGSPLVCNGLIHGIASFVRGGCASGLYPDAFAPVAQFVNWIDSIIQ
# Tests used:
# [1] = biological target: Cathepsin D; assay: cell-based or functional assay
# [2] = biological target: T1, MMP-7; assay: cell-based or functional assay
# [3] = biological target: Trypsin; assay: cell-based or functional assay
# [4] = biological target: T2, Cathepsin G; assay: cell-based or functional assay
# [5] = biological target: Chymotrypsin; assay: cell-based or functional assay
# [6] = biological target: porcine pancreatic elastase (PPE) (porcine) (UniProt P00772); assay: cell-based or functional assay
# [7] = biological target: Plasmin; assay: cell-based or functional assay
# [8] = biological target: MMP-2; assay: cell-based or functional assay
# [9] = biological target: human leukocyte elastase (HLE) (human) (UniProt P08246); assay: cell-based or functional assay
# [10] = biological target: Thrombin; assay: cell-based or functional assay
# [11] = biological target: Papaine; assay: cell-based or functional assay
# [12] = biological target: p54 protein (glycoprotein of about 54 kDa isolated from shark cartilage, serine protease inhibitor)
# Chain of UniProt P00772 (P00772 27-266): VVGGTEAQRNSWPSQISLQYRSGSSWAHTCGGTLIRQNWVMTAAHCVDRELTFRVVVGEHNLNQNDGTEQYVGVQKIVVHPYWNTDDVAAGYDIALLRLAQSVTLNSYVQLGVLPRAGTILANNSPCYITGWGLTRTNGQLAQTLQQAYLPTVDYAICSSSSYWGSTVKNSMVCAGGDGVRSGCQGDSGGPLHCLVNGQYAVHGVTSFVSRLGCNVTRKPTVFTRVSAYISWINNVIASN
molecule,measurement,setting,value
Alpha 1-antitrypsin (AAT),Activity (% inhibition),[1],77 % inhibition
same,Activity (% inhibition),[2],0 % inhibition
same,Activity (% inhibition),[3],94 % inhibition
same,Activity (% inhibition),[4],68 % inhibition
same,Activity (% inhibition),[5],100 % inhibition
same,Activity (% inhibition),[6],64 % inhibition
same,Activity (% inhibition),[7],49 % inhibition
"p54 protein (glycoprotein of about 54 kDa isolated from shark cartilage, serine protease inhibitor)",Activity (% inhibition),[8],0 % inhibition
same,Activity (% inhibition),[9],42 % inhibition
same,Activity (% inhibition),[1],0 % inhibition
same,Activity (% inhibition),[2],0 % inhibition
same,Activity (% inhibition),[3],30 % inhibition
same,Activity (% inhibition),[4],0 % inhibition
same,Activity (% inhibition),[5],53 % inhibition
same,Activity (% inhibition),[10],0 % inhibition
same,Activity (% inhibition),[6],84 % inhibition
same,Activity (% inhibition),[7],49 % inhibition
same,Activity (% inhibition),[11],8 % inhibition
B1,elastase assay (fluorescent elastin substrate),[12],The inhibition of elastase by the p54 protein was also validated with a human leukocyte elastase
